Legend:
[1] = test system: OVCAR-3 (human Ovarian Carcinoma cell line) mouse xenograft; test: OVCAR-3 mouse xenograft, alone or with Carboplatin (Example 16); type: in vivo; conditions: 3 at 4 mg/kg and 6 mg/kg weekly; Carboplatin 40 mg/kg weekly in combination; 3 weeks i.v.
Description: An OVCAR-3 (human Ovarian Carcinoma cell line) mouse xenograft cancer model was used to assess the anti-tumour efficacy properties of 3 alone or in combination with Carboplatin, compared to Gemcitabine, alone or in combination with Carboplatin. NSG Mice were inoculated and tumours sized as described above. On day twenty nine after implantation, mice with similar sized tumours (mean tumour volume 100 mm^3) were randomised into 10 groups of 10 animals. Gemcitabine and 3 were prepared as described above. DBLCarboplatin (Hospira) was dissolved in saline solution and further diluted in 5% glucose immediately prior to dosing.
Gemcitabine was administered twice weekly and dendrimers and carboplatin were administered weekly for 3 weeks via tail vein i.v. injection, at 0.1 ml/10 g body weight.

[2] = Gemcitabine release from dendrimers in citrate buffer; type: physicochemical; conditions: Citrate Buffer pH 4.5, 37° C.
Description: (§1) A study was carried out to determine the rate of gemcitabine release from dendrimer compounds in PBS and citrate buffer. Gemcitabine-conjugated dendrimers of the present disclosure, and a comparative example dendrimer, were each dissolved in PBS Buffer (2 mL, 10 mM, pH 7.4) or Citrate Buffer (2 mL, 0.1 M, pH 4.5) and held at 37° C. Samples were then analysed by injecting 5 μL of the solution on HPLC. At various time points, samples were analysed by HPLC. HPLC (C8 XBridge, 3×100 mm), gradient: 5% ACN/H2O (0-1 min), 5-80% ACN (1-7 min), 80% ACN (7-12 min), 80-5% ACN (12-13 min), 5% ACN (13-15 min), 243 nm, 10 mM ammonium formate buffer, 0.4 mL/min.

Plasma release study = type: in vitro ADME; conditions: 37° C.
Description: The plasma was placed in a CO2 incubator at 3% CO2 at 42% relative humidity to reach a pH of 7.4.
Gemcitabine HCl (28.5 mg) was dissolved in Milli Q water and the resulting stock solution transferred to a 5 mL volumetric flask and diluted to provide working standard solutions.
The plasma release study was conducted by adding 1 mL of plasma (centrifuged and filtered) to 0.2 mL of dendrimer solution (approximately 2 mg/mL gemcitabine equivalent in miliQ water) for example dendrimers and a comparator. The mixtures were vortexed (30 sec) then incubated at 37° C. 5% CO2. At various timepoints aliquots (0.1 mL) were removed and added to ACN (0.2 mL). The resulting mixtures were vortexed (30 s), centrifuged (10 min, 4° C.), filtered and analysed by HPLC (C8 Xbridge, 3×100 mm, […], 0.4 mL/min., gradient: 5% ACN/H2O) (0-1 min), 5-80% ACN (1-7 min), 80% ACN (7-12 min), 80-5% ACN (12-13 min), 5% ACN (13-15 min), 100 mM ammonium formate buffer, column temperature 50° C., sample tray 4° C., 260 nm.

[3] = test system: CAPAN-1 tumour xenografts; test: CAPAN-1 mouse xenograft, alone or with Abraxane or DEP-DTX (Examples 13a, 13b); type: in vivo
Description: Mice were inoculated and tumours sized as described above. On day nineteen after implantation, mice with similar sized tumours (mean tumour volume 100 mm^3) were randomised into 7 groups of 10 animals. […] Abraxane® was dissolved in saline solution immediately prior to dosing.
Abraxane®, gemcitabine and dendrimers were administered at days 1, 10, and 17 via tail vein i.v. injection, at 0.1 ml/10 g body weight.
In an extension of Example 13a, two additional groups of mice were prepared and dosed to assess the anti-tumour efficacy properties of a taxane-dendrimer combined with a nucleoside analogue-dendrimer (e.g. 6). Mice were inoculated and tumours sized as described above.
Dendrimers were administered weekly via tail vein i.v. injection, at 0.1 ml/10 g body weight for 3 weeks.
All statistical analyses were performed using GraphPad Prism 8.1.

A549 tumour xenografts = test: A549 lung adenocarcinoma mouse xenograft (Example 15); type: in vivo; conditions: 3 at 6 mg/kg weekly, Gemcitabine 120 mg/kg twice weekly, 3 weeks i.v.
Description: A A549 (human adenocarcinomic human alveolar basal epithelial) cell line was used to assess the anti-tumour efficacy properties of 3. NSG mice were inoculated and tumours sized as described above. On day 30 after implantation, mice with similar sized tumours (mean tumour volume 100 mm^3) were randomised into four groups of 10 animals for each tumour type. Gemcitabine and 3 were prepared as described above.
Gemcitabine was administered twice weekly and dendrimer was administered weekly for 3 weeks via tail vein i.v. injection, at 0.1 ml/10 g body weight.

[4] = test system: CAPAN-1 tumour xenografts; test: CAPAN-1 mouse xenograft, two conjugates (Example 14); type: in vivo; conditions: 3 at 6 mg/kg weekly, 6 at 5 mg/kg weekly, Gemcitabine 120 mg/kg twice weekly, 3 weeks i.v.
Description: A CAPAN-1 (human pancreatic adenocarcinoma cell line) mouse xenograft pancreatic cancer model was used to assess the anti-tumour efficacy properties of 3 and 6. NSG (NOD-SCID Interleukin-2 receptor gamma chain null) mice were inoculated and tumours sized as described above. On day 24 after implantation, mice with similar sized tumours (mean tumour volume 100 mm^3) were randomised into four groups of 10 animals for each tumour type. Gemcitabine, 3 and 6 were prepared as described above.
Gemcitabine was administered twice weekly and dendrimers were administered weekly for 3 weeks via tail vein i.v. injection, at 0.1 ml/10 g body weight.

[5] = Gemcitabine release from dendrimers in PBS; type: physicochemical; conditions: PBS pH 7.4, 37° C.
Description: as §1

For “[BHA Lys][Lys]30[Lys]32 [Compound 3, [BHA Lys][Lys]30[Lys]32 [(α-NH-TDA-Gemcitabine)32 (ε-NHPEG˜2100)32]]”, the “anti-tumour efficacy compared to other groups (FIG. 9)” value [1] was “more effective than Gemcitabine”, the “% Gemcitabine released in citrate buffer” value ([2]; 0 h) was 0% and the “% Gemcitabine released in citrate buffer” value ([2]; 0.08 h) was 4.42%. The “% Gemcitabine released in citrate buffer” value ([2]; 2 h) was 5.21%, the “% Gemcitabine released in citrate buffer” value ([2]; 4 h) was 5.51% and the “% Gemcitabine released in citrate buffer” value ([2]; 6 h) was 4.92%. The “% Gemcitabine released in citrate buffer” value ([2]; 8 h) was 5.61%, the “% Gemcitabine released in citrate buffer” value ([2]; 10 h) was 5.39% and the “% Gemcitabine released in citrate buffer” value ([2]; 12 h) was 5.94%. The “% Gemcitabine released in citrate buffer” value ([2]; 24 h) was 7.53%, the “% Gemcitabine released in citrate buffer” value ([2]; 26 h) was 7.52% and the “% Gemcitabine released in citrate buffer” value ([2]; 28 h) was 7.75%. The “% Gemcitabine released in citrate buffer” value ([2]; 30 h) was 7.71%, the “% Gemcitabine released in citrate buffer” value ([2]; 32 h) was 7.48% and the “% Gemcitabine released in citrate buffer” value ([2]; 34 h) was 7.72%. The “% Gemcitabine released in citrate buffer” value ([2]; 36 h) was 8.19%, the “Human Plasma % release” value (Plasma release study; 0 h) was 1.81% and the “Human Plasma % release” value (Plasma release study; 2 h) was 3.73%. For the same substance, the “Human Plasma % release” value (Plasma release study; 4 h) was 6.31%, the “Human Plasma % release” value (Plasma release study; 6 h) was 17.74% and the “Human Plasma % release” value (Plasma release study; 24 h) was 34.83%. The “Human Plasma % release” value (Plasma release study; 30 h) was 37.86%, the “anti-tumour efficacy compared to other groups at day 29” value ([3]; day 29) was “significantly more effective than Gemcitabine” and the “Tumour Growth inhibition (%) v vehicle at day 29” value ([3]; day 29, i.v., Gemcitabine 120, Abraxane 40, 3 at 6.5, 6 at 5 (day 1) then 4, DEP-DTX 24 (10 in combination) mg/kg) was 103%. The “anti-tumour efficacy compared to other groups over the dosing study (FIG. 6)” value ([3]; out to day 82) was “more effective than Gemcitabine and also more effective than the combination of gemcitabine and Abraxane®”, the “anti-tumour efficacy compared to Gemcitabine (FIG. 8)” value (A549 tumour xenografts) was “more effective than Gemcitabine” and the “anti-tumour efficacy compared to other groups (FIG. 7)” value [4] was “significantly more effective than Gemcitabine or 6”. The “% Gemcitabine released in PBS” value ([5]; 0 h) was 0%, the “% Gemcitabine released in PBS” value ([5]; 0.08 h) was 3.95% and the “% Gemcitabine released in PBS” value ([5]; 2 h) was 11.23%. The “% Gemcitabine released in PBS” value ([5]; 4 h) was 16.6%, the “% Gemcitabine released in PBS” value ([5]; 6 h) was 21.99% and the “% Gemcitabine released in PBS” value ([5]; 8 h) was 25.64%. For the same substance, the “% Gemcitabine released in PBS” value ([5]; 10 h) was 30.03%, the “% Gemcitabine released in PBS” value ([5]; 12 h) was 33.17% and the “% Gemcitabine released in PBS” value ([5]; 24 h) was 46.36%. For the same substance, the “% Gemcitabine released in PBS” value ([5]; 26 h) was 48.07%, the “% Gemcitabine released in PBS” value ([5]; 28 h) was 51.24% and the “% Gemcitabine released in PBS” value ([5]; 30 h) was 53.41%. For the same substance, the “% Gemcitabine released in PBS” value ([5]; 32 h) was 54.48%, the “% Gemcitabine released in PBS” value ([5]; 34 h) was 55.8% and the “% Gemcitabine released in PBS” value ([5]; 36 h) was 57.52%.

From patent publication US12616711B2, “Therapeutic dendrimer” (Starpharma Pty Ltd, priority 2019, dated 2026)
